Source: the supplement of paper PMC9112550, “Optimization of the antimicrobial peptide Bac7 by deep mutational scanning” (BMC Biology, 2022)

tested on: Escherichia coli TOP10; assay: shrunken log2 fold change of peptide-encoding DNA abundance (4.5 h post-induction vs induction); higher = less antimicrobial activity (less host growth inhibition); details: time post-induction: 4.5 h; library: site-saturation at positions 5, 18, 19, 20
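Further: peptides expressed intracellularly from a pBAD plasmid library in pooled LB shake-flask culture, induced with 0.3% L-arabinose, DNA abundance read by NGS, three biological replicates, DESeq2 with apeglm shrinkage.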

Row | Sequence | shrunken log2 fold change
1 | RRIRPRPPRLPRPRPRPIEQPRP | 0.000804
2 | RRIRPRPPRLPRPRPRPIETPRP | 0.0267
3 | RRIRPRPPRLPRPRPRPIHLPRP | -0.146
4 | RRIRPRPPRLPRPRPRPIIAPRP | -0.681
5 | RRIRPRPPRLPRPRPRPIIGPRP | -0.0597
6 | RRIRPRPPRLPRPRPRPIKSPRP | -0.0993
7 | RRIRPRPPRLPRPRPRPILAPRP | 0.273
8 | RRIRPRPPRLPRPRPRPILCPRP | 0.179
9 | RRIRPRPPRLPRPRPRPILLPRP | -0.526
10 | RRIRPRPPRLPRPRPRPIMCPRP | -0.221
11 | RRIRPRPPRLPRPRPRPIMPPRP | -0.257
12 | RRIRPRPPRLPRPRPRPIMVPRP | -0.158
13 | RRIRPRPPRLPRPRPRPIMWPRP | 0.253
14 | RRIRPRPPRLPRPRPRPIPFPRP | -0.0358
15 | RRIRPRPPRLPRPRPRPIPVPRP | -0.402
16 | RRIRPRPPRLPRPRPRPIQWPRP | 0.0833
17 | RRIRPRPPRLPRPRPRPISDPRP | -0.507
18 | RRIRPRPPRLPRPRPRPITGPRP | -0.189
19 | RRIRPRPPRLPRPRPRPITSPRP | -0.354
20 | RRIRPRPPRLPRPRPRPIVLPRP | -0.772
21 | RRIRPRPPRLPRPRPRPIWWPRP | 0.665
22 | RRIRPRPPRLPRPRPRPKAPPRP | 0.171

Row | Sequence | shrunken log2 fold change
23 | RRIRPRPPRLPRPRPRPKCIPRP | -1.04
24 | RRIRPRPPRLPRPRPRPKDSPRP | -0.157
25 | RRIRPRPPRLPRPRPRPKEPPRP | 0.133
26 | RRIRPRPPRLPRPRPRPKERPRP | 0.128
27 | RRIRPRPPRLPRPRPRPKFGPRP | -0.0973
28 | RRIRPRPPRLPRPRPRPKFVPRP | -0.0877
29 | RRIRPRPPRLPRPRPRPKGDPRP | 0.022
30 | RRIRPRPPRLPRPRPRPKGPPRP | 0.641
31 | RRIRPRPPRLPRPRPRPKMWPRP | 0.299
32 | RRIRPRPPRLPRPRPRPKNDPRP | -0.108
33 | RRIRPRPPRLPRPRPRPKNFPRP | -0.262
34 | RRIRPRPPRLPRPRPRPKPCPRP | -0.044
35 | RRIRPRPPRLPRPRPRPKQPPRP | 0.0475
36 | RRIRPRPPRLPRPRPRPKQYPRP | -0.29
37 | RRIRPRPPRLPRPRPRPKVAPRP | 0.02
38 | RRIRPRPPRLPRPRPRPKVIPRP | -0.172
39 | RRIRPRPPRLPRPRPRPKYMPRP | 1.72
40 | RRIRPRPPRLPRPRPRPLELPRP | 0.0125
41 | RRIRPRPPRLPRPRPRPLGDPRP | 0.279
42 | RRIRPRPPRLPRPRPRPLGMPRP | -0.0753
43 | RRIRPRPPRLPRPRPRPLGTPRP | 0.125
44 | RRIRPRPPRLPRPRPRPLHQPRP | -0.0461

Row | Sequence | shrunken log2 fold change
45 | RRIRPRPPRLPRPRPRPLIIPRP | -0.605
46 | RRIRPRPPRLPRPRPRPLKVPRP | -0.107
47 | RRIRPRPPRLPRPRPRPLLIPRP | -0.758
48 | RRIRPRPPRLPRPRPRPLLKPRP | 0.593
49 | RRIRPRPPRLPRPRPRPLLYPRP | -0.348
50 | RRIRPRPPRLPRPRPRPLMTPRP | -0.0836
51 | RRIRPRPPRLPRPRPRPLNHPRP | -0.363
52 | RRIRPRPPRLPRPRPRPLNIPRP | -0.809
53 | RRIRPRPPRLPRPRPRPLPEPRP | 0.935
54 | RRIRPRPPRLPRPRPRPLQDPRP | 0.151
55 | RRIRPRPPRLPRPRPRPLRDPRP | 0.522
56 | RRIRPRPPRLPRPRPRPLRHPRP | 0.21
57 | RRIRPRPPRLPRPRPRPLRNPRP | 0.673
58 | RRIRPRPPRLPRPRPRPLSDPRP | -0.0446
59 | RRIRPRPPRLPRPRPRPLTLPRP | 0.121
60 | RRIRPRPPRLPRPRPRPLTYPRP | -0.0089
61 | RRIRPRPPRLPRPRPRPLVIPRP | -0.509
62 | RRIRPRPPRLPRPRPRPMCGPRP | -0.252
63 | RRIRPRPPRLPRPRPRPMDVPRP | -0.0123
64 | RRIRPRPPRLPRPRPRPMEEPRP | -0.0433
65 | RRIRPRPPRLPRPRPRPMFCPRP | -0.332
66 | RRIRPRPPRLPRPRPRPMGCPRP | -0.0927

Row | Sequence | shrunken log2 fold change
67 | RRIRPRPPRLPRPRPRPMGEPRP | -0.231
68 | RRIRPRPPRLPRPRPRPMGIPRP | 0.21
69 | RRIRPRPPRLPRPRPRPMIKPRP | -0.696
70 | RRIRPRPPRLPRPRPRPMILPRP | -0.064
71 | RRIRPRPPRLPRPRPRPMIPPRP | -0.124
72 | RRIRPRPPRLPRPRPRPMKIPRP | 0.0483
73 | RRIRPRPPRLPRPRPRPMKWPRP | 0.291
74 | RRIRPRPPRLPRPRPRPMMKPRP | -0.173
75 | RRIRPRPPRLPRPRPRPMPEPRP | -0.0242
76 | RRIRPRPPRLPRPRPRPMPGPRP | -0.0627
77 | RRIRPRPPRLPRPRPRPMPHPRP | -0.169
78 | RRIRPRPPRLPRPRPRPMPNPRP | 0.156
79 | RRIRPRPPRLPRPRPRPMRCPRP | 0.221
80 | RRIRPRPPRLPRPRPRPMRIPRP | 0.189
81 | RRIRPRPPRLPRPRPRPMSGPRP | 0.115
82 | RRIRPRPPRLPRPRPRPMSLPRP | -0.769
83 | RRIRPRPPRLPRPRPRPMTLPRP | -0.189
84 | RRIRPRPPRLPRPRPRPMVAPRP | 0.208
85 | RRIRPRPPRLPRPRPRPMVQPRP | 0.0526
86 | RRIRPRPPRLPRPRPRPMVWPRP | 0.212
87 | RRIRPRPPRLPRPRPRPMVYPRP | -0.228
88 | RRIRPRPPRLPRPRPRPMWDPRP | -0.0234

Row | Sequence | shrunken log2 fold change
89 | RRIRPRPPRLPRPRPRPMWFPRP | -0.113
90 | RRIRPRPPRLPRPRPRPMYFPRP | -0.0431
91 | RRIRPRPPRLPRPRPRPMYMPRP | -0.0346
92 | RRIRPRPPRLPRPRPRPNALPRP | 0.0933
93 | RRIRPRPPRLPRPRPRPNEPPRP | 0.146
94 | RRIRPRPPRLPRPRPRPNHPPRP | -0.404
95 | RRIRPRPPRLPRPRPRPNIKPRP | -0.322
96 | RRIRPRPPRLPRPRPRPNKPPRP | -0.00463
97 | RRIRPRPPRLPRPRPRPNKSPRP | 0.408
98 | RRIRPRPPRLPRPRPRPNNGPRP | -0.335
99 | RRIRPRPPRLPRPRPRPNNIPRP | -0.848
100 | RRIRPRPPRLPRPRPRPNNLPRP | -0.181
101 | RRIRPRPPRLPRPRPRPNPHPRP | 0.0866
102 | RRIRPRPPRLPRPRPRPNPPPRP | 0.188
103 | RRIRPRPPRLPRPRPRPNPQPRP | -0.0414
104 | RRIRPRPPRLPRPRPRPNQHPRP | -0.43
105 | RRIRPRPPRLPRPRPRPNRGPRP | 0.0424
106 | RRIRPRPPRLPRPRPRPNRNPRP | -0.352
107 | RRIRPRPPRLPRPRPRPNRRPRP | -0.0942
108 | RRIRPRPPRLPRPRPRPNSKPRP | -0.557
109 | RRIRPRPPRLPRPRPRPNTHPRP | -0.00792
